Ratio to parent data for 3 substances are collected here from PMC5438564.

In experiment [1] the target is Fyn (UniProt P39688). In words: proximity ligation assay (PLA), Fyn3 + Tau1 antibodies (tau unphosphorylated at S198/S199/S202). To be noted: transfected Mapt-/- neurons; n = 16-31 neurons per construct from two experiments; parent: est. 1.0; read off a plot.
The target of experiment [2] is Fyn (UniProt P39688). In words: proximity ligation assay (PLA), Fyn3 + Tau5 antibodies (total tau). Conditions: transfected Mapt-/- neurons; n = 16-31 neurons per construct from two experiments; parent: est. 1.0; read off a plot.

For the substance “wildtype 0N4R mouse tau (mTau^WT) P216A; P219A”, the ratio to parent with Fyn [1] amounted to 1.1; in the experiment with Fyn [2], 0.41.
On the same counts, the results for “wildtype 0N4R mouse tau (mTau^WT) P233A; P236A” are 0.2 and 0.2.
In the case of wildtype 0N4R mouse tau (mTau^WT) Y18F, the ratio to parent with Fyn [1] is 1.7; with Fyn [2], 0.3.
